Molecular target: Aβ42
Assay: SPR

HGVVFLHVTYV [Spike1058 (1058HGVVFLHVTYV1068), fragment of the SARS-CoV-2 spike protein] was tested, and the Kd was 82.6 nM.

Reference: publication PMC10480042 (ACS applied materials & interfaces, 2023)
